Where “and” joins values, the source holds several entries; their conditions need not be identical. Equal entries are not always repeated.
Biological target: GSK3 binding protein (GBP) on beads (Xenopus)
Assay: pull-down

B1: dishevelled (dsh), radiolabeled (natural protein)
chain: MAETKVIYHLDEEETPYLVKVPVPATDIRLRDFKAALGRGHAKYFFKAMDQDFGVVKEEISDDNAKLPCFNDRVVSWLASSEGSQPDSAPPAPATEVRPEPPPPVPPPIPPPPAERTSGIGDSRPPSFHPNVSGSTEQLDQDNESVISMRRDRVRRRESSEQAGVGRGVNGRTERHLSGYESSSTLLTSEIETSICDSEEDDTMSRFSSSTEQSSASRLLKRHRRRRKQRPPRLERTSSFSSVTDSTMSLNIITVTLNMEKYNFLGISIVGQSNERGDGGIYIGSIMKGGAVAADGRIEPGDMLLQVNDINFENMSNDDAVRVLRDIVHKPGPIVLTVAKCWDPSPQGYFTLPRNEPIHPIDPAAWVSHSAALSGSFPVYPGSASMSSMTSSTSVTETELSHALPPVSLFSLSVHTDLASVVKVMASPESGLEVRDRMWLKITIPNAFLGSDVVDWLYHHVEGFQDRREARKFASNLLKAGFIRHTVNKITFSEQCYYIFGDLTGCENYMTNLSLNDNDGSSGASDQDTLAPLPLPGASPWPLLPTFSYQYQAPHPYSTQPPAYHELSSYSYGMGSAGSQHSEGSRSSGSNRSDGGRGMQKDDRSGVAGVGGGDSKSGSGSESEYSTRSSIRRVGGGEAGPPSERSTSSRLPPHHPPSVHSYAAPGVPLSYNPMMLMMMPPPPLPPPGVCPPNSSVPPGAPPLVRDLASVPPELTATRQSFHMAMGNPSEFFVDVM
modifications: [35S]methionine label
fold increase in binding with 1 μM CK1ε against buffer- or GSK3-treated extracts: 4 fold and 5 fold

Source: publication PMC2196183
